Results published in PMC3295763 (PLoS ONE, 2012).

B1: sdAb G10 (VHH)
VHH: DVQLQASGGGLVQPGGSLKLSCVASGSTFSPDMMRWYRQAPGKQRDLVAWISTSGFTMYADSVKGRFTISRDNAKNTVYLQMNSLKPEDAAVYYCNANRFSGPDYWGQGMQVSVSS
notes: source: E. coli Rosetta, periplasmic (pECAN45), purified (IMAC, Superdex 75)
B2: sdAb A1 (VHH)
VHH: DVQLQASGGGLVQAGGSLELSCVVVGESIIDYQMAWFRQMVGREREFVAAITGDSHYSDYSASASGRFTISRDNAKKTVSLQMNHLKPEDTALYYCAARKGFGINRLSTAFDYWGHGTQVTVSS
notes: as for B1
B3: sdAb B2 (VHH)
VHH: EVQLQASGGGLVQAGGSLRLSCAASGHINIHYAMGWFRRAPGKEREFVAAVTWSGASTYYADSVKGRFTISRDNGGNTMFLQLDSLKPEDTATYYCAAQGALGRLTSASGYDYWGQGTQVTVSS
notes: as for B1
B4: sdAb B12 (VHH)
VHH: DVQLQASGGGLAQPGGSLRLSCVASGSVSRLSRMGWYRQAPGKQRELVAYIWHDGDNSYMDSVKGRFTISRDNARDTAYLQMNSLKPEDTAVYYCNYYRVGSGDSWGQGIQVIVSS
notes: as for B1
B5: sdAb C7 (VHH)
VHH: EVQLQASGGGLVQPGGSLNLSCAASGEILSFNSMGWYRQAPGKQCELVAVILSGFSPNYADSVKGRFTISRDGAKNTVFLRMNRLKPEDTADYYCAARFYGAIRDEQSVNYWGQGTRVTVSS
notes: as for B1

Target: S-layer protein EA1 (Bacillus anthracis Sterne, UniProt P94217)
Test: SPR; […] (5 µg/ml in 10 mM sodium acetate pH 4.0); […], dissociation 10 min; […]
Settings: both partners purified

Binder	Kd [nM]	koff [s⁻¹]	kon [M⁻¹ s⁻¹]
B1	2.04	0.000166	81100
B2	0.305	0.000233	766000
B3	6.17	0.00037	60000
B4	6.18	0.0015	242000
B5	1.57	0.000248	158000
